Data: the supplement of paper PMC11908140

B1: library; numbered along this chain (parent)
chain: MRKPRAAVGSGHRKQAASQEGRQKHAKNNSQAKPSACDGLARQPEEVVLQASVSSYHLFRDVAEVTAFRGSLLSWYDQEKRDLPWRRRAEDEMDLDRRAYAVWVSEVMLQQTQVATVINYYTGWMQKWPTLQDLASASLEEVNQLWAGLGYYSRGRRLQEGARKVVEELGGHMPRTAETLQQLLPGVGRYTAGAIASIAFGQATGVVDGNVARVLCRVRAIGADPSSTLVSQQLWGLAQQLVDPARPGDFNQAAMELGATVCTPQRPLCSQCPVESLCRARQRVEQEQLLASGSLSGSPDVEECAPNTGQCHLCLPPSEPWDQTLGVVNFPRKASRKPPREESSATCVLEQPGALGAQILLVQRPNSGLLAGLWEFPSVTWEPSEQLQRKALLQELQRWAGPLPATHLRHLGEVVHTFSHIKLTYQVYGLALEGQTPVTTVPPGARWLTQEEFHTAAVSTAMKKVFRVYQGQQPGTCMGSKRSQVSSPCSRKKPRMGQQVLDNFFRSHISTDAHSLNSAAQ

Variants of: B1
Experiment: 8OG:A repair function score (normalized; synonymous = 0, nonsense = -1) (normalized log-likelihood score); higher = more repair activity (WT-like)
Conditions: with 8OG:A DNA repair reporter (GFP) in HEK-293 MUTYH KO cells
Method: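 Saturation mutagenesis (NNN codon scan) of the MUTYH cDNA (521-aa nuclear isoform NM_001048174.1 / NP_001041639), stably expressed under doxycycline induction in HEK-293 MUTYH knockout cells. Cells were co-transfected with an 8OG:A-bearing GFP repair reporter plus mCherry and sorted 72 h later into GFP+ and GFP− bins, three replicates per tile. The Rosace log2 enrichment (GFP+ vs GFP−) was converted per tile to a normalized function score with synonymous variants centered at 0 and nonsense variants (codons 1-471) at -1; low-abundance variants were removed.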

8OG:A repair function score, by site and new letter:
P44: T 0.166 | S -0.107 | L -0.133 | N -0.0778 | E -0.0552 | M -0.107 | W -0.102 | A -0.142 | Q -0.113 | D -0.119 | Y -0.212 | I -0.165 | C -0.247 | G -0.111 | V -0.0774 | R -0.0646 | F -0.202 | K 0.00377 | H -0.0386
S52: A 0.00623
V47: Q -0.0401 | G -0.0668 | N 0.0108 | A 0.101 | I 0.0706 | F 0.0442 | S -0.0698 | H 0.0522 | E -0.116 | R -0.00231 | T -0.0192 | Y -0.0242 | W 0.0191 | L -0.135 | M -0.0812 | C 0.0227 | P -0.0988 | D -0.0274 | K 0.00868
V48: Y -0.141 | G 0.0279 | F -0.0263 | K 0.119 | A 0.00435 | Q 0.0497 | I 0.0882 | T -0.0154 | N 0.0431 | M -0.0648 | H 0.0666 | D 0.0961 | W 0.0774 | P -0.11 | E -0.122 | L -0.0249 | S -0.0148 | R 0.0418 | C 0.0424
E45: N 0.01 | V -0.122 | K -0.0451 | D 0.155 | M 0.00456 | C -0.0211 | H 0.0965 | T 0.0748 | R 0.0409 | Q -0.0405 | S -0.0822 | A -0.024 | I -0.0125 | L -0.0561 | F -0.059 | G 0.13 | P -0.0802 | Y 0.0286
Q43: Y -0.0469 | G -0.0204 | K 0.0479 | D 0.0131 | W -0.0384 | V -0.0464 | I 0.0991 | R 0.0791 | L 0.0948 | S -0.0281 | N -0.0614 | F 0.0374 | T 0.0245 | E 0.0951 | M 0.0733 | H 0.0802 | C 0.138 | P 0.054 | A 0.0603
A6: D -0.15 | K -0.0201 | C -0.117 | N -0.0265 | Y -0.0552 | G 0.0165 | I -0.177 | Q 0.0112 | M -0.168 | R -0.0747 | S -0.117 | V 0.0405 | P -0.0227 | H -0.0145 | F 0.0517 | T 0.0379 | L 0.01 | E 0.137
G39: H -0.44 | A 0.101 | I -0.0353 | N 0.241 | D 0.118 | T 0.103 | V 0.0274 | L 0.0565 | M 0.24 | S 0.0658 | F 0.045 | E 0.0199 | P 0.0274 | C -0.0254 | R 0.0558 | K 0.121 | Y -0.0346
A41: T 0.0139 | H -0.0884 | F 0.0355 | V -0.0754 | N 0.0813 | M -0.0227 | C -0.0569 | W -0.0976 | I 0.0909 | R 0.0859 | D -0.0561 | E -0.0689 | P 0.00904 | Q 0.168 | G -0.0656 | Y -0.107 | K -0.0537 | S -0.048 | L -0.0575
L49: V -0.0831 | E 0.0582 | T 0.0602 | G -0.027 | P 0.109 | D 0.0266 | Y -0.0309 | C 0.125 | K -0.236 | A 0.0219 | I -0.0224 | Q -0.00358 | S 0.027 | H 0.0564 | W -0.109 | R 0.00838 | M 0.233 | F -0.0825 | N 0.241
Q50: Y -0.0626 | V -0.0513 | I -0.135 | N 0.00105 | E 0.0122 | T -0.147 | F -0.0563 | D 0.088 | P 0.126 | W 0.014 | R 0.0284 | G -0.0798 | S 0.0939 | C 0.0151 | A -0.00978 | M -0.0659 | L -0.0733 | H -0.0435 | K 0.0673
P34: R 0.0769 | E 0.0965 | W 0.133 | L 0.131 | C 0.0156 | K 0.166 | H 0.142 | D 0.128 | S 0.0874 | Q 0.146 | I -0.0342 | T -0.0245 | M 0.176 | A -0.039 | G -0.0669 | N 0.0767 | V -0.0896
L40: W 0.123 | K 0.127 | M 0.227 | H 0.00147 | A 0.139 | S 0.073 | R 0.0698 | C -0.0146 | D 0.21 | V 0.0896 | G 0.0939 | Y 0.179 | N 0.042 | I -0.0464 | F 0.134 | P 0.00594 | Q 0.0733 | T 0.087 | E 0.0138
R42: G 0.0112 | P -0.176 | M -0.196 | E 0.021 | A 0.112 | Y 0.0172 | C 0.0324 | K 0.0776 | F 0.00894 | I -0.00552 | H 0.0289 | W 0.0271 | L -0.0705 | Q 0.102 | V 0.0781 | D 0.0284 | S 0.0235 | T -0.0609 | N 0.0413
A36: E 0.00159 | N -0.0203 | I -0.0893 | F 0.0951 | H 0.146 | P 0.00994 | M -0.076 | C 0.066 | L -0.0486 | R -0.15 | S -0.0113 | W -0.0681 | G -0.011 | V 0.0896 | K -0.187 | T 0.118 | D -0.0511 | Q -0.0644
R2: A -0.0711 | K 0.125 | Y -0.155 | S 0.049 | I 0.124 | M -0.169 | V 0.0618 | L -0.084 | C -0.529 | G 0.122 | W -0.00849 | H -0.00678 | P -0.00444 | D -0.112 | T 0.0193 | Q -0.0466 | F 0.0866 | N 0.108
E46: V 0.0528 | N -0.0764 | G -0.0545 | H -0.0875 | C 0.0656 | W -0.0064 | T 0.134 | P 0.0495 | F 0.0911 | A 0.0651 | D 0.0496 | Q 0.0688 | I 0.0225 | L -0.211 | R 0.0933 | M -0.119 | K -0.0383 | S -0.0996 | Y -0.0657
K3: N 0.00918 | Y 0.137 | Q 0.107 | W -0.0484 | T 0.144 | V -0.0444 | H 0.0273 | P 0.0268 | L 0.0859 | G 0.00287 | E -0.174 | S -0.0766 | D -0.233 | C -0.0701 | I -0.161 | A 0.108 | M -0.238 | R -0.0184 | F 0.00169
A51: P 0.142 | M -0.607 | V 0.0738 | C 0.0297 | R 0.00957 | N -0.00641 | H 0.0322 | K 0.124 | Y 0.00468 | Q 0.214 | D 0.029 | W 0.101 | F -0.116 | S 0.0659 | G -0.0113 | L -0.036 | E 0.0222 | I -0.041
